# Experimental data as given in US12390535B2, “Method of making oral dosage forms” (UNIVERSITÄT HEIDELBERG, priority 2018, dated 2025).
# Assay: Zetasizer measurement of zeta potential of liposomes
# Assay type: physicochemical
# Details: CPP coupled after liposome preparation, eight equivalents relative to first lipid (FIG. 1)
# Experimental: The zeta potential can be determined by methods known in the art. The zeta potential may be determined after dilution of the liposomes to a lipid concentration of 0.95 mg/ml using a 50 mM phosphate buffer with a pH of 7.4. The default settings of the automatic mode of the Zetasizer Nano ZS from Malvern™ (Malvern Instruments Ltd., Worcestershire, United Kingdom) can be chosen as follows: number of measurements=3; run duration=10 s; number of runs=10; equilibration time=60 s; refractive index solvent 1.330; refractive index polystyrene cuvette 1.590; viscosity=0.8872 mPa s; temperature=25° C.; dielectric constant=78.5 F/m; backscattering mode (173°); automatic voltage selection; Smoluchowski equation.
# The particle size, PDI and zeta potential of all liposomal formulations were determined at room temperature using a zetasizer Nano ZS from Malvern™ (Malvern Instruments Ltd., Worcestershire, United Kingdom). Size and PDI were measured after dilution to a lipid concentration of 0.076 mg/ml with a 10 mM phosphate buffer with a pH of 7.4 using the automatic mode. The zeta potential was determined after dilution to a lipid concentration of 0.95 mg/ml by a 50 mM phosphate buffer with a pH of 7.4. […]
sequence,measurement,value
"RRRRRRRRRC (cyclo(RRRRRRRRRC); also: coupled to liposomes) [R9C, here coupled to liposomes after their preparation]",zeta potential,only slightly positive
